Measured values from patent US20200347151A1 (CRAGE MEDICAL, published 2020).

Assays:
[1] = target: T1, human FAPα_His (human, UniProt Q12884 26-760); assay: Biacore, scFv; 8E3, human FAPα
T1 construct: Fusion protein expressed in 293F cells and purified on a nickel column; also called huFAP; recombinant huFAPα

[2] = target: T2, mouse FAPα_His (mouse, UniProt P97321 26-761); assay: Biacore, scFv; 8E3, murine FAP
T2 construct: Fusion protein expressed in 293F cells and purified on a nickel column; also called mFAP

[3] = target: T1, human FAPα_His; assay: Biacore, scFv; reference is parent antibody 10A4

T1 sequence (Q12884 other isoform, or with tags, fused parts or gaps limits assumed): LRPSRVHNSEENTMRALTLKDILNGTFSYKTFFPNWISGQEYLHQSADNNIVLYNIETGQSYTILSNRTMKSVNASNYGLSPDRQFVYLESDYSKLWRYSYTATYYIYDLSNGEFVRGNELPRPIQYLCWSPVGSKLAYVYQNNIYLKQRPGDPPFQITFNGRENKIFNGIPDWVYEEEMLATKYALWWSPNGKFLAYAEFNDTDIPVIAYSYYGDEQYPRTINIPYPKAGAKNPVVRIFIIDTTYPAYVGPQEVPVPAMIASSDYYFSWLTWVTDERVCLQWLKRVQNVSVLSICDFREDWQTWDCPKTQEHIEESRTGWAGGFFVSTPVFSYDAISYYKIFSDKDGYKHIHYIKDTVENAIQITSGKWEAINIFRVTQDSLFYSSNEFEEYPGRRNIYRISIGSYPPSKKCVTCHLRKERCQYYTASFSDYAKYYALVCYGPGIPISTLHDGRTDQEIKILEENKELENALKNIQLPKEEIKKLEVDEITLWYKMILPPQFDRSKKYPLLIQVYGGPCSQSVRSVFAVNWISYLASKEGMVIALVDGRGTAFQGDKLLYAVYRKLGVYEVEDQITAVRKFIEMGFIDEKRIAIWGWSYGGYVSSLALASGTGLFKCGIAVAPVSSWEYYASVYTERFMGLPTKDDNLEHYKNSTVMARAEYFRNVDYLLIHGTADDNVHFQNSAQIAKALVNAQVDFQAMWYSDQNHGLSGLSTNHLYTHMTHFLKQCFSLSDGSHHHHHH
T2 sequence (P97321 other isoform, or with tags, fused parts or gaps limits assumed): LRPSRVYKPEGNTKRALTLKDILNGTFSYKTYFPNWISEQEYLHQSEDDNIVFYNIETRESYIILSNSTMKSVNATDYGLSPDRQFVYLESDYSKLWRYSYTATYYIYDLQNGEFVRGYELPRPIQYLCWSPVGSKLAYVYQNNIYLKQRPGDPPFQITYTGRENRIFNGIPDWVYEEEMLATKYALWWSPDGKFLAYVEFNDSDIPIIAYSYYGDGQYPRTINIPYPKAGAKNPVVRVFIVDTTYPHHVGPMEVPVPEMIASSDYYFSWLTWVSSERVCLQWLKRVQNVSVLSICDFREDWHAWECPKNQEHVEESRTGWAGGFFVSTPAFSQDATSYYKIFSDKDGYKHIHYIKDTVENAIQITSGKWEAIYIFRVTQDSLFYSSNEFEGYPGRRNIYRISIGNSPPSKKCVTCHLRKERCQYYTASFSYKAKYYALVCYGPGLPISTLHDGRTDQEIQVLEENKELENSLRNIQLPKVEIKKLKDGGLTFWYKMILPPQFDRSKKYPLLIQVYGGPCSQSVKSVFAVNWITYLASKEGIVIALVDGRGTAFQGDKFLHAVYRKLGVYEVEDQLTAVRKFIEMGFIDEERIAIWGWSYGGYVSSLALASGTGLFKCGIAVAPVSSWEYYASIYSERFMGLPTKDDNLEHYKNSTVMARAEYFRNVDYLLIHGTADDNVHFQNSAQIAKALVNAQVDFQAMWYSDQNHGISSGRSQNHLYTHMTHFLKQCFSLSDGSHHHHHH

Kd [1]: 81.6 nM | Kd [2]: 267 nM | fold affinity against 10A4 [3]: 2.4 times
B1: antibody 8E3 (scFv), affinity-matured from 10A4 (scFv)
scFv: QVQLVQSGAEVKKPGSSVKVSCKASGGTFSSYAISWVRQAPGQGLEWMGGIIPIFGTANYAQKFQGRVTITADKSTSTAYMELSSLRSEDTAVYYCARDAADRDYWGQGTTVTVSSGGGGSGGGGSGGGGSDIVMTQSPLSLPVTPGEPASISCRSSQSLLHPNGFNHLYWYLQKPGQSPQLLIYVGGNRASGVPDRFSGSGSGTDFTLKISRVEAEDVGVYYCQQRNNKNRTFGQGTKVEIKR
notes: also called hu8E3
